44 proteins from US20230303994 can be followed below.

Residue numbers refer to the chain shown, from its start. Where only a bound is given, the exact number is not on record here.

Sequences and labels used below:
B1: trypsin variant SEQ ID NO: 52 (protein)
chain: IVGGYTCAANSIPYQVSLNSGSHRCGGSLINSQWVVSAAHCYKLRIQVRLGEHNIDVLEGNEQFINAAKIITHPNFNGNTLDNDIMLIKLSSPATLNSRVATVSLPRSCAAAGTECLISGWGNTKSSGSSYPSLLQCLKAPVLSDSSCKSSYPGQITGNMICVGFLEGGKDACQGDSGGPVVCNGQLQGIVSSGYGCAQKNKPGVYTKVCNYVNWIQQTIAAN
B2: trypsin variant SEQ ID NO: 55 (protein)
chain: B1 chain with L44S, D56W
B3: trypsin variant SEQ ID NO: 65 (protein)
chain: B1 chain with L44S, Y131G
B4: trypsin variant SEQ ID NO: 16 (protein)
chain: B1 chain with L44S, K125G
B5: trypsin variant SEQ ID NO: 71 (protein)
chain: B1 chain with L44S, S193T
B6: trypsin variant SEQ ID NO: 63 (protein)
chain: B1 chain with L44S, Y131I
B7: trypsin variant SEQ ID NO: 62 (protein)
chain: B1 chain with L44S, Y131V
B8: trypsin variant SEQ ID NO: 66 (protein)
chain: B1 chain with L44S, Y131S
B9: trypsin variant SEQ ID NO: 128 (protein)
chain: B1 chain with L44S, Y131P
B10: trypsin variant SEQ ID NO: 75 (protein)
chain: B1 chain with L44S, G78Y
B11: trypsin variant SEQ ID NO: 69 (protein)
chain: B1 chain with L44S, S193F
B12: trypsin variant SEQ ID NO: 67 (protein)
chain: B1 chain with L44S, Y131Q
B13: trypsin variant SEQ ID NO: 129 (protein)
chain: B1 chain with L44S, S193N
B14: trypsin variant SEQ ID NO: 15 (protein)
chain: B1 chain with L44S, K125A
B15: trypsin variant SEQ ID NO: 72 (protein)
chain: B1 chain with L44S, G78S
B16: trypsin variant SEQ ID NO: 124 (protein)
chain: B1 chain with L44S, Y131K
B17: trypsin variant SEQ ID NO: 13 (protein)
chain: B1 chain with L44S, R99E
B18: trypsin variant SEQ ID NO: 58 (protein)
chain: B1 chain with L44S, R107P
B19: trypsin variant SEQ ID NO: 126 (protein)
chain: B1 chain with R24E, L44S
B20: trypsin variant SEQ ID NO: 12 (protein)
chain: B1 chain with L44S, R99D
B21: trypsin variant SEQ ID NO: 127 (protein)
chain: B1 chain with L44Y
B22: trypsin variant SEQ ID NO: 8 (protein)
chain: B1 chain with L44S, R99G
B23: trypsin variant SEQ ID NO: 125 (protein)
chain: B1 chain with R24D, L44S
B24: trypsin variant SEQ ID NO: 76 (protein)
chain: B1 chain with L44S, G78E
B25: trypsin variant SEQ ID NO: 61 (protein)
chain: B1 chain with L44S, R107D
B26: trypsin variant SEQ ID NO: 21 (protein)
chain: B1 chain with L44S, K125H
B27: trypsin variant SEQ ID NO: 59 (protein)
chain: B1 chain with L44S, R107G
B28: trypsin variant SEQ ID NO: 70 (protein)
chain: B1 chain with L44S, S193Y
B29: trypsin variant SEQ ID NO: 20 (protein)
chain: B1 chain with L44S, K125E
B30: trypsin variant SEQ ID NO: 68 (protein)
chain: B1 chain with L44S, Y131D
B31: trypsin variant SEQ ID NO: 23 (protein)
chain: B1 chain with L44S, K125Q
B32: trypsin variant SEQ ID NO: 123 (protein)
chain: B1 chain with R24G, L44S
B33: trypsin variant SEQ ID NO: 112 (protein)
chain: B1 chain with L44P, D56H, G78P, R99H, R107T, K125S, K170A, A172S
B34: trypsin variant SEQ ID NO: 7 (protein)
chain: B1 chain with L44S, R99W
B35: trypsin variant SEQ ID NO: 22 (protein)
chain: B1 chain with L44S, K125L
B36: trypsin variant SEQ ID NO: 17 (protein)
chain: B1 chain with L44S, K125Y
B37: trypsin variant SEQ ID NO: 60 (protein)
chain: B1 chain with L44S, R107S
B38: trypsin variant SEQ ID NO: 130 (protein)
chain: B1 chain with L44S, S193C
B39: trypsin variant SEQ ID NO: 121 (protein)
chain: B1 chain with L44S, K170I
B40: trypsin variant SEQ ID NO: 120 (protein)
chain: B1 chain with L44S, K125P
B41: trypsin variant SEQ ID NO: 54 (protein)
chain: B1 chain with L44S, D56A
B42: trypsin variant SEQ ID NO: 64 (protein)
chain: B1 chain with L44S, Y131W
B43: trypsin variant SEQ ID NO: 122 (protein)
chain: B1 chain with L44S, K170F
B44: trypsin variant SEQ ID NO: 114 (protein)
chain: B1 chain with L44P, D56H, R99A, R107T, K125A, K170A, A172S

For this series, the target named is pre-pro-human insulin.
Consider B1, for which the “Activity PPI cleavage” value was “yes” and the Selectivity was more than 90%.

As to B2, the “Activity PPI cleavage” value is on record as “yes” and the Selectivity is more than 90%.

Regarding B3, the “Activity PPI cleavage” value was “yes” and the Selectivity was more than 80%.

B4: the “Activity PPI cleavage” value is recorded as “yes” and the Selectivity is more than 90%.

As for B5, the “Activity PPI cleavage” value is given as “yes” and the Selectivity is more than 62.1%.

Regarding B6, the “Activity PPI cleavage” value was “yes” and the Selectivity is listed as more than 90%.

As to B7, the “Activity PPI cleavage” value is “yes” and the Selectivity is on record as more than 90%.

Take B8: the “Activity PPI cleavage” value is reported as “yes” and the Selectivity is more than 90%.

B9: the “Activity PPI cleavage” value is listed as “yes” and the Selectivity turned out to be 57.1%.

As for B10, the “Activity PPI cleavage” value is recorded as “yes” and the Selectivity was more than 90%.

As to B11, the “Activity PPI cleavage” value is “yes” and the Selectivity is on record as more than 70%.

Turning to B12, the “Activity PPI cleavage” value is reported as “yes” and the Selectivity is more than 90%.

Turning to B13, the “Activity PPI cleavage” value is on record as “yes” and the Selectivity is on record as 44.8%.

As for B14, the “Activity PPI cleavage” value is given as “yes” and the Selectivity was more than 90%.

On to B15, for which the “Activity PPI cleavage” value is on record as “yes” and the Selectivity is more than 90%.

On to B16, for which the “Activity PPI cleavage” value was “yes” and the Selectivity is reported as 27.6%.

Regarding B17, the “Activity PPI cleavage” value is “yes” and the Selectivity is listed as more than 90%.

Turning to B18, the “Activity PPI cleavage” value is “yes” and the Selectivity is more than 90%.

Turning to B19, the “Activity PPI cleavage” value was “yes” and the Selectivity was 7.2%.

Consider B20, for which the “Activity PPI cleavage” value is on record as “yes” and the Selectivity was more than 90%.

Turning to B21, the “Activity PPI cleavage” value is given as “yes” and the Selectivity is 20.5%.

Turning to B22, the “Activity PPI cleavage” value is recorded as “yes” and the Selectivity is on record as more than 90%.

Regarding B23, the “Activity PPI cleavage” value is “yes” and the Selectivity was 12.2%.

B24: the “Activity PPI cleavage” value was “yes” and the Selectivity is reported as more than 90%.

Turning to B25, the “Activity PPI cleavage” value is recorded as “yes” and the Selectivity was more than 80%.

For B26, the “Activity PPI cleavage” value was “yes” and the Selectivity was more than 90%.

With B27, the “Activity PPI cleavage” value is “yes” and the Selectivity is given as more than 90%.

As for B28, the “Activity PPI cleavage” value is “yes” and the Selectivity is reported as more than 70%.

As to B29, the “Activity PPI cleavage” value was “yes” and the Selectivity is reported as more than 90%.

As for B30, the “Activity PPI cleavage” value is given as “yes” and the Selectivity is listed as more than 70%.

With B31, the “Activity PPI cleavage” value is on record as “yes” and the Selectivity is more than 90%.

Regarding B32, the “Activity PPI cleavage” value is “yes” and the Selectivity worked out at 60.7%.

As for B33, the “Activity PPI cleavage” value was “yes” and the Selectivity is more than 90%.

In the case of B34, the “Activity PPI cleavage” value was “yes” and the Selectivity was more than 90%.

On to B35, for which the “Activity PPI cleavage” value is listed as “yes” and the Selectivity is recorded as more than 90%.

B36: the “Activity PPI cleavage” value was “yes” and the Selectivity is more than 80%.

Regarding B37, the “Activity PPI cleavage” value is reported as “yes” and the Selectivity is more than 90%.

As for B38, the “Activity PPI cleavage” value is given as “yes” and the Selectivity is reported as 33.8%.

As for B39, the “Activity PPI cleavage” value is recorded as “yes” and the Selectivity turned out to be 4.6%.

For B40, the “Activity PPI cleavage” value is given as “yes” and the Selectivity was found to be 1.4%.

Take B41: the “Activity PPI cleavage” value is recorded as “yes” and the Selectivity is on record as more than 90%.

Turning to B42, the “Activity PPI cleavage” value is reported as “yes” and the Selectivity is on record as more than 90%.

Regarding B43, the “Activity PPI cleavage” value is listed as “yes” and the Selectivity is 59.4%.

For the protein B44, the “Activity PPI cleavage” value is listed as “yes” and the Selectivity is on record as more than 90%.
